Experimental data as given in the Immune Epitope Database (IEDB).

Legend:
[1] = molecular target: HLA-A*02:01; assay: IEDB peptide-MHC binding, purified MHC/competitive/radioactivity; filed as Kd, often an IC50 or EC50 that approximates it; ≥ and ≤ were set here for values at or beyond the usual limits of such assays
[2] = molecular target: HLA-A*11:01; assay: as above
[3] = source organism: Mammarenavirus choriomeningitidis
[4] = source organism: Mammarenavirus brazilense

Sequence: AQPGLLSYV
- Kd ([1]; source organism: Mammarenavirus guanaritoense): 0.161 µM

Sequence: FTNDSIISH
- Kd [2, 3]: 0.038 µM

Sequence: GLSQFTQTV
- Kd ([1]; source organism: Mammarenavirus juninense): 0.03 µM

Sequence: KCLNIMLGK
- Kd [2, 4]: 0.678 µM

Sequence: LVSFLLLAGR
- Kd [2, 3]: 0.07 µM

Sequence: LVTFLLLCGR
- Kd ([2]; source organism: Mammarenavirus lassaense): ≥ 5 µM

Sequence: SIQKNTIFK
- Kd ([2]; source organism: Mammarenavirus machupoense): 0.0055 µM

Sequence: SSIIRSLPK
- Kd ([2]; source organism: Mammarenavirus whitewaterense): 0.0025 µM

Sequence: SSQRDTILK
- Kd [2, 4]: 0.0093 µM

Sequence: STYYVHENK
- Kd [2, 4]: 0.006 µM

Sequence: TTYLGPLSCK
- Kd [2, 3]: 0.0028 µM
